The data set deals with the molecule itself. Description: X-ray crystallography, homodimer in the asymmetric unit.

B1: isopentenyl phosphate kinase (IPK) from Methanocaldococcus jannaschii (enzyme)
chain: MLTILKLGGSILSDKNVPYSIKWDNLERIAMEIKNALDYYKNQNKEIKLILVHGGGAFGHPVAKKYLKIEDGKKIFINMEKGFWEIQRAMRRFNNIIIDTLQSYDIPAVSIQPSSFVVFGDKLIFDTSAIKEMLKRNLVPVIHGDIVIDDKNGYRIISGDDIVPYLANELKADLILYATDVDGVLIDNKPIKRIDKNNIYKILNYLSGSNSIDVTGGMKYKIEMIRKNKCRGFVFNGNKANNIYKALLGEVEGTEIDFSE
notes: The crystal holds a homodimer, two molecules in the asymmetric unit; also called IPK-Mjannaschii; IPK-Mj
In the case of B1, the binding result is “binds”.
